The text below walks through data of patent US20230109780A1 (XIYUAN ANJIAN MEDICINE SHANGHAI, published 2023).

For assay [1], the target named is T1, human NT-4 (human, UniProt P34130 81-210).
T1 construct: Bought protein; also called Neurotrophic factor-4
T1 sequence (looked up): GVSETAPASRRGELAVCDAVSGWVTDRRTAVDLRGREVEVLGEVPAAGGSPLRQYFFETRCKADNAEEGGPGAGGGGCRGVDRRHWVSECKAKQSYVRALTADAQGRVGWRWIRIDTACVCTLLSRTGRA
As to the kind of experiment: ELISA, plate coated with human NT-4 (50 ng per well), OD450. (In an ELISA, binding on a coated surface is turned into a signal by an enzyme label.)

The target in assay [2] is T2, human BDNF (human, UniProt P23560 129-247).
T2 construct: Bought protein; also called Brain-Derived Neurotrophic Factor
T2 sequence (looked up): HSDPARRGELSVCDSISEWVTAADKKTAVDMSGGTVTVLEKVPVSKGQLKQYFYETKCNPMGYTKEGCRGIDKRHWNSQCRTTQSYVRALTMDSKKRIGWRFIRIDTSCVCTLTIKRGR
As to the kind of experiment: ELISA, plate coated with human BDNF (50 ng per well), OD450.

Assay [3] deals with T3, recombinant human NGF protein (human, UniProt P01138 122-241).
T3 construct: Bought protein; also called nerve growth factor; biotin-labeled human NGF
As to the kind of experiment: ELISA, human NGF coated. Here is the method:
The affinity and specificity of humanized antibody were investigated by using human NGF as an antigen (Beijing Yiqiao Shenzhou Technology Co., Ltd., 11050-HNAC). NGF was diluted with […] coating solution (PBS), and each well of 96-well microtiter plate was coated with 50 ng, after washing and blocking, and then added with serially diluted antibodies, and incubated at room temperature for 1 hour. After washing three times, HRP-conjugated donkey anti-human IgG antibody (Biolegend) was added and reacted at room temperature for 1 hour. After washing three times, tetramethylbenzidine (TMB, Biolegend) was added for color development. 1M HC1 was […] used to terminate the color development, and the absorbance values were read at 450 nm with a microplate reader.

Assay [4] has as its target T4, human NT-3 (human, UniProt P20783 139-257).
T4 construct: Bought protein; also called Neurotrophic factor-3
T4 sequence (looked up): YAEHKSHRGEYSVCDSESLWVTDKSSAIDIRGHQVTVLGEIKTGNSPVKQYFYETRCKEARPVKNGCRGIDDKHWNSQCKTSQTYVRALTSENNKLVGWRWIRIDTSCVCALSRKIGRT
As to the kind of experiment: ELISA, plate coated with human NT-3 (50 ng per well), OD450. The protocol:
Each well of a 96-well microtiter plate was coated with 50 ng of human NGF (Beijing Yiqiao Shenzhou Technology Co., Ltd., 11050-HNAC), human BDNF (Beijing Yiqiao Shenzhou Technology Co., Ltd., 50240-MNAS), human NT-3 (Beijing Yiqiao Shenzhou Technology Co., Ltd., 10286-HNAE), or human NT-4 (Alomone, N-270). The bindings of the murine anti-NGF antibodies to human NGF and three homo-family proteins were detected according to the method described in Example 2.
The binding of the humanized anti-NGF antibody to human NGF and to three homo-family proteins was detected according to the ELISA method described in Example 6A.

Assay [5] has as its target T3, recombinant human NGF protein. As to the kind of experiment: cell-based or functional assay.
Assay [6] has as its target T4, human NT-3. As to the kind of experiment: ELISA, plate coated with human NT-3 (50 ng per well), OD450. The source holds these as a separate data set.
Assay [7] has as its target T2, human BDNF. As to the kind of experiment: ELISA, plate coated with human BDNF (50 ng per well), OD450. This is another data set of the same source.
Assay [8] addresses T1, human NT-4. In words: ELISA, plate coated with human NT-4 (50 ng per well), OD450. This is another data set of the same source.

Changes are numbered by the printed parent chain. Read-outs that look alike come from different tables or passages of the source.

T3 sequence (P01138 122-241 limits assumed): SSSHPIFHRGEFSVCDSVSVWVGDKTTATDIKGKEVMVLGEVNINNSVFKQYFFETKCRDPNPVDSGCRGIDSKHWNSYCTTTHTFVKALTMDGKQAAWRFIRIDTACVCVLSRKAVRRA

B1: human-mouse chimeric antibody 138E12-Chi (antibody, V domains shown)
VH: QVQLKESGPGLVAPSQSLSITCTVSGFSLTGYGVNWVRQPPGKGLEWLGMIWFDGSTDYNSALKSRLSISKDNSKSQVFLKMNSLQTDDTARYYCAREGYYYGTTYYFDYWGQGTTLTVSS
VL: DIQMTQTTSSLSASLGDRVTISCRASQDISNYLNWYQQKPDGTVKLLIYYTSRLHSGVPSRFSGSGSGTDYSLTISNLEQEDIATYFCQQGNTLPRTFGGGTKLEIK
notes: the constant regions are not specified
The term EC50 denotes the concentration giving half of the maximal effect. Take B1: the binding result with human NT-4 [1], with human BDNF [2] and in the assay with human NT-3 [4] was “no binding (tested: 66.67 nM)” in each case. Moreover, the half-maximal effective concentration (EC50) in assay [3] came out at 45.4 pM. For the same molecule, the “IC50, inhibition of NGF-induced proliferation of TF-1 cell” value (“IC50, inhibition” below) in assay [5] stood at 74 pM.

B2: humanized anti-NGF antibody 138E12-02 (antibody, V domains shown)
VH: QVQLQESGPGLVKPSETLSLTCTVSGFSLTGYGVNWIRQPPGKGLEWLGMIWFDGSTDYNSALKSRLTISKDNSKSQVSLKLSSVTAADTAVYYCAREGYYYGTTYYFDYWGQGTTVTVSS
VL: DIQMTQSPSSLSASVGDRVTITCRASQDISNYLNWYQQKPGKAPKLLIYYTSRLHSGVPSRFSGSGSGTDYTLTISSLQPEDFATYFCQQGNTLPRTFGGGTKVEIK
notes: Humanized antibody expressed in CHO cells
For the molecule B2, the binding result with human NT-4 [1], in the assay with human BDNF [2] and with human NT-3 [4] was “no binding (tested: 66.67 nM)” throughout. For the same molecule, in assay [3], the 50% effective concentration (EC50) is 42 pM. Moreover, in assay [5], the “IC50, inhibition” value came out at 64 pM.

B3: humanized anti-NGF antibody 138E12-06 (antibody, V domains shown)
VH: B2 VH with S61T
VL: B2 VL
On to B3, for which the binding result with human NT-4 [1], with human BDNF [2] and with human NT-3 [4] was “no binding (tested: 66.67 nM)” in each case. Besides, the EC50 in assay [3] came to 50 pM. Besides, the “IC50, inhibition” value in assay [5] turned out to be 125 pM.

B4: humanized anti-NGF antibody 138E12-11 (antibody, V domains shown)
VH: B2 VH with D54E, N60Q
VL: B2 VL
With B4, the binding result in the assay with human NT-4 [1], with human BDNF [2] and with human NT-3 [4] was “no binding (tested: 66.67 nM)” each time. Besides, in assay [3], the half-maximal effective concentration (EC50) was determined as 32.4 pM. In addition, the “IC50, inhibition” value in assay [5] is 62 pM.

B5: humanized anti-NGF antibody 138E12-08 (antibody, V domains shown)
VH: B2 VH with L48I, D54E, L67V
VL: B2 VL
For the molecule B5, the binding result with human NT-4 [1], in the assay with human BDNF [2] and with human NT-3 [4] was “no binding (tested: 66.67 nM)” throughout. In assay [3], the concentration giving a half-maximal response (EC50) was found to be 25.3 pM. In addition, the “IC50, inhibition” value in assay [5] is 67 pM.

B6: humanized anti-NGF antibody 138E12-03 (antibody, V domains shown)
VH: B2 VH with D54E
VL: B2 VL
In the case of B6, the binding result in the assay with human NT-4 [1], with human BDNF [2] and in the assay with human NT-3 [4] was “no binding (tested: 66.67 nM)” in each case. For the same molecule, in assay [3], the EC50 worked out at 39.2 pM. Besides, the “IC50, inhibition” value in assay [5] came to 130 pM.

B7: humanized anti-NGF antibody 138E12-07 (antibody, V domains shown)
VH: B2 VH with L48I, D54E, N60Q, L67V, K71V, N73T, S76N, V78F
VL: B2 VL
In the case of B7, the binding result with human NT-4 [1], with human BDNF [2] and in the assay with human NT-3 [4] was “no binding (tested: 66.67 nM)” throughout. Also, the EC50 in assay [3] was 34 pM. The “IC50, inhibition” value in assay [5] came out at 214 pM.

B8: humanized anti-NGF antibody 138E12-10 (antibody, V domains shown)
VH: B2 VH with L48I, D54E, N60Q, L67V
VL: B2 VL
Regarding B8, the binding result in the assay with human NT-4 [1], in the assay with human BDNF [2] and in the assay with human NT-3 [4] was “no binding (tested: 66.67 nM)” each time. The EC50 in assay [3] turned out to be 18.4 pM. Further, the “IC50, inhibition” value in assay [5] amounted to 31 pM.

B9: humanized anti-NGF antibody 138E12-01 (antibody, V domains shown)
VH: B2 VH with L48I, L67V
VL: B2 VL
notes: as for B2
With B9, the binding result in the assay with human NT-4 [1], with human BDNF [2] and with human NT-3 [4] was “no binding (tested: 66.67 nM)” in each case. In addition, the concentration giving a half-maximal response (EC50) in assay [3] is 40.3 pM. In assay [5], the “IC50, inhibition” value was found to be 30 pM.

B10: humanized anti-NGF antibody 138E12-05 (antibody, V domains shown)
VH: B2 VH with N60Q
VL: B2 VL
As to B10, the binding result in the assay with human NT-4 [1], with human BDNF [2] and with human NT-3 [4] was “no binding (tested: 66.67 nM)” in each case. In assay [3], the EC50 was determined as 63.4 pM. Further, the “IC50, inhibition” value in assay [5] came out at 136 pM.

B11: humanized anti-NGF antibody 138E12-09 (antibody, V domains shown)
VH: B2 VH with L48I, N60Q, L67V
VL: B2 VL
For the molecule B11, the binding result with human NT-4 [1], with human BDNF [2] and in the assay with human NT-3 [4] was “no binding (tested: 66.67 nM)” in each case. Further, the EC50 in assay [3] turned out to be 27 pM. The “IC50, inhibition” value in assay [5] was found to be 35 pM.

B12: humanized anti-NGF antibody 138E12-04 (antibody, V domains shown)
VH: B2 VH with G55A
VL: B2 VL
Take B12: the binding result with human NT-4 [1], with human BDNF [2] and in the assay with human NT-3 [4] was “no binding (tested: 66.67 nM)” throughout. Moreover, the concentration giving a half-maximal response (EC50) in assay [3] stood at 57 pM. Moreover, the “IC50, inhibition” value in assay [5] is 112 pM.

B13: humanized anti-NGF antibody 43E5-02 (antibody, V domains shown)
VH: QVQLVQSGAEVKKPGASVKVSCKASGYTFTDYEMHWVRQAPGQGLEWIGAIDPETGGTAYNQKFKGRATLTADKSISTAYMELSRLRSDDTAVYYCRRGANLNHYGNDEGSYWGQGTLVTVSS
VL: DVVMTQSPLSLPVTLGQPASISCKSSQSLLHSVGKTYLNWLQQRPGQSPRRLIYLVSKLDSGVPDRFSGSGSGTDFTLKISRVEAEDVGVYFCWQGTHLPQTFGGGTKVEIK
notes: as for B2
As for B13, the binding result with human NT-3 [6], with human BDNF [7] and with human NT-4 [8] was “no binding (tested: 66.67 nM)” each time. The EC50 in assay [3] was found to be 222 pM. In addition, in assay [5], the “IC50, inhibition” value is 534 pM.

B14: humanized anti-NGF antibody 43E5-01 (antibody, V domains shown)
VH: B13 VH with I48M, A68V, L70M
VL: B13 VL
notes: as for B2
Turning to B14, the binding result with human NT-3 [6], in the assay with human BDNF [7] and in the assay with human NT-4 [8] was “no binding (tested: 66.67 nM)” throughout. Also, the EC50 in assay [3] was determined as 229 pM. Further, the “IC50, inhibition” value in assay [5] was determined as 582 pM.
